Laboratory results reported in the DeepSol protein solubility set.

experiment: soluble on expression in E. coli; label from the status in PepcDB or PDB records

Soluble on expression in E. coli, not soluble:
MGSDKIHHHHHHMNKIAPAEIASMLNDWYLAIKKHEVEESSRLFEEVKPLLDDMEEDQEVLAYFSLLELRHKVLLHEARGQGFQHEEPSHMNATSDMLKYYFFLFEGMYEAYKNNYDIAIGLYKDAEQYLDNIPDPIEKAEFHLKVGKLYYKLGQNIVSLNHTRQAVKTFREETDYKKKLASALITMSGNFTEMSQFEEAEAYLDEAIRITSELEDHFFEAQLLHNFGLLHAQSGKSEEAVSKLEEALQNDEYARSAYYYHSAYLLIRELFKIKKKEQALSYYQDVKEKLTAEPNRICEAKIDILYAIYAEGGHAETFHLCKQHMDDLLSEKEYDSVRELSILAGERYRELELYKEAAHFFYEALQIEELIKRTEVI
MGSDKIHHHHHHMNLKTTLGLLAGRSSHFVLSRLGRGSTLPGKVALQFDKDILQNLAKNYEIVVVTGTNGKTLTTALTVGILKEVYGQVLTNPSGANMITGIATTFLTAKSSKTGKNIAVLEIDEASLSRICDYIQPSLFVITNIFRDQMDRFGEIYTTYNMILDAIRKVPTATVLLNGDSPLFYKPTIPNPIEYFGFDLEKGPAQLAHYNTEGILCPDCQGILKYEHNTYANLGAYICEGCGCKRPDLDYRLTKLVELTNNRSRFVIDGQEYGIQIGGLYNIYNALAAVAIARFLGADSQLIKQGFDKSRAVFGRQETFHIGDKECTLVLIKNPVGATQAIEMIKLAPYPFSLSVLLNANYADGIDTSWIWDADFEQITDMDIPEINAGGVRHSEIARRLRVTGYPAEKITETSNLEQVLKTIENQDCKHAYILATYTAMLEFRELLASRQIVRKEMN
MGSDKIHHHHHHMNLNPIINNFQRPIRKVQICCILIFSCAACSLNIPYENQYSDPDAITTVTAARELLASAYDAIPKPEFSLSVLSDDFQPTFLINLNADLNNLYKWHPKPMEDLSNSLWEKYYSAIAIANTVLERIHYVSPISDSDKQELQCIVSEAKTLKAYCYFNLLRLFAPTYPEGPEKDGIILKERFELAFLKRSSISECVNAIRQLLTEAVTVDNRPSQVYWFSRQSAYYLLAALELYAENYDKAEEYALKILSSTNAYNVLAPVHYKKLWEQEPCEECIFSLHTTNSYYTDMNYERKKGDYFTINSTLTQLYTANDIRYEATVYPQEMPGESIGETLPVLYLGKYNKQNWNYKPIQYINKLRVSGICFILAEAYCQDQKGHDALALEVINNYLAQREAPLLDTSLSGAPLLKAILQEKWKEFAGEGERYFDLKRYRKSLLSDWNLSATMKNKPIKPDDYRWLFPIPKGEYLYNENISQNAGWTKVEK
MGSDKIHHHHHHMNLRRLKYFIKIVDVGSLTQAADILHIAQPALSQQLATLEGEVNQKLLIRTKRGVTPTNAGKILYSHAQAILRQCAQAQSAIDRAGGELSGSVSVGLAPGTAAQQLALPLMAEVQRQYPGIVLYFNENFGTTLSELIMNGRMDMAVIYDNRNIHGLRFIPLMKEPLCFVCPNSLMKPKKEITLAEVAQHNLFLPRIYNIMRKIVDEAFIKEGLTYQVKCEIESQTTLNAVLAAGMGCTIMPDSAARSMLNASNAWMAKIIDPDIYASLSFCMSDHLSLSEPAEVVKNILLSLMADRTPDNRPLTLVS
MGSDKIHHHHHHMNMNREQLKFCLLGAVFLFGGCTASDPRTHLDSSADTLFQITPDQNHAALERQSGTDQYLKLLLNVAEDAEVKEVQVKPGLVSKDTATLSMPLTDGRTVSFKLSRSDSVASGMVGWVGDMPSNRRQLYPSPAEIDMDPLNWVSLVSDGNLVVGDIRVDGQLYRLTAVGKGQQVLVKVDESKLPPEAAPIPVPVQAQEKTRSLSTSQSRKSTIRVLFVTTHQSRAMFPNYKIELAQALQNANQYLINSKVDAVYELSDIYDSDYDETGKSPQTQLSDMKADKPFGAKIHIEREKGRADLVSMLSTFSIYCGIANLTASVERAFSAISCFGSLGHELGHNMGAGHKDEAPVASLPPYAYGYQHTAPNFHTQMRTSNGAIPYHSNPRLQYQGVPMGTVDKNDVARTFNENRDTVANFYPDPAHRVRLWLYGANRGCFIDLKPGEQALLSWFTECKDNDVNPVRVEVKDFYSGSTPRKLCFANIFYTVNSCYTGSNFSGDFVITSVHTGGGKPEGFKFTRRLIGPVYRVSYE
MGSDKIHHHHHHMNPCGFNKCYIQPSADLSVSLQIVSGKSRASISEIGSHMDSLQIDGLDILLHSYDGSPTHFGSAFLFPYANRVKDARYVMDGVEYRLPNNEGKNSIHGLVLDKNFSVISREEESITMETSIAGGEAYPSDLSVRISHSVDETSYRCEVTVINKGVKRSPIAAGFHPYFVYKNKWAIIKPETAWIMEYDGPFPTGKMDRMTFGDISYLNAYDNQFFADSDIIVDVGYSRLKITRNNMPFFVIYNGRYSAGSSVAIEPMMSAVDSFNNGIGLRLLNPGDTMKFGYSIDIV
MGSDKIHHHHHHMNPNIAKISSLLSDPSRSSILLSLMDGRIHPAGELAYLANIKPQTASFHLNKLLEAKLISVEKHGRHRYYRLADSDAANVIEQLLHIAPKAKVKSLKESKEKKDLHFARTCYDHLAGYVGVQMAHSLVEQGMLKKVDLNFEVTSEGALFFSKLGINEEQQRNKRRAFARCCLDWSERQHHIAGALGNALLVRMLEEEWIVRMPKTRAIRITQSGKIAFEKHLNVKI
MGSDKIHHHHHHMNQYERKMLDLLKRGKQELGYVGVKAEFEAEGTRTDELLRLIELARKAGLNVGLKIGGCEAMRDLMESKQYGVEYIIAPMIESGYALSKFIDAKNKVYSKDEQRDTRFLFNVETKSAFGCMDELVQIAAQPGGADGVVFGRVDFSLSMGLTRDDINDPKVTSYCLEVSEACKRSGLDFVVGGGVSMDALSIMKELNSSHLSRFETRKIIFDAAMMENADVHNGLLQAVHFELLWLLNKREYYSCILKEDAKRIEMLERRWHVLSADEKASTSTYVNQPNI
MGSDKIHHHHHHMNRDTERTTMEGEHLYSPKNDDAPPAPAPDSPASLLDELIEAARVKRDEEAYPITRHGIEAFVAHLARPKRPIETVSQATIDDMIAEIDRKLCRQVDAILHHPDFQQLESTWRSLKFLVERTDFRENIKIQFLDVGKAALLDDFDDSPDITKSGLYQKVYAAEYGQFGGQPIGAIVANYTFGPGAQDVKLLQYVASTSAMAHTPFIAAAGPAFFGIDSFGKLPNVKDLASLFEGPQFAKWNAFRESEDARYVGLTLPRFLLRLPYGANTTPVKRFNYDERVDGGDADFLWGNAAFAFATRLTASFADYRWCANVIGPKGGGTVADLPLYAYEAMGEIQNKIPTDVLISERREFELAEQGFIALTMRKHSDNAAFFSANSTQKPKFFGISKEGKDAELNYRLGTQLPYIFVVNRLAHYIKVIQRENIGTWKERGDLEQELNQWIRQYVADMDNPTEGVRSRRPLRQAEIFVSDVEGEPGWYRVDMKVRPHFKYMGASFTLSLVGKLEKR
MGSDKIHHHHHHMNRLIGEKMNDVLSKVTDKEYLKQIEDVIKFHGHLSGGAFIGIQMYNIAKKVLDIKDTDRVYANCETRNCMPDAFQVLGNCTTGNKRLSIKDYDIMAVTVNKIIPENEVGTGVRIVFDHKKAEKYPALYNWFMNIKKVPHEEVISDLIDAGDSIYSWKSVEIHVSEKKPKFSAVCGLCGESFIKKGTDDENICPNCAEKSAE
MGSDKIHHHHHHMNSGGYMAIPPGAILPESLPEFKIFMRNREGKYVLWAADGNRVTVAQLAKLSESGVQDVFVDIEESFKYEQYLEANLGKILDNQGITVDRKAAIFSRVSTNVVKAAFETSLKSGAMGMETLQRTQKMIENAMKFITDSNSLPALAKMIGHDYETYEHAMKVTWWTVAFISENPEILTYCQKDEISDAEQISETLRSCGVCALLHDIGKAYVPQEVINKNGPLTEIEWEIMKRHPLSGLAMLLDSELPAFVKKAIVQHHEDFDGGGYPMNLEGTNITVLARVLRIMDVFDAMTSRRPYKDPLSPMKVIQIMIGTPSHPEDNAEPAQDPRDRGMGRCFDHELLGKFIIFIGNVKLD
MGSDKIHHHHHHMNTLTDILNRPRKLRPECLLIVGDSNMGKTTIIHEFARQYYTKTVSDADMDLLSVTKPVLPILAPAKANVKELYINILNHFFVPFRASDPEAKLRNQAVHLMRKYETKMLIIDEIHNCLTGSAKLLPEVMNTLKNLSNELSLNIVGVGTREAITILHTDPQYASRFDVVNLPKWELNQDFLRLLVSYVRLLPLKKQSNLASKEIATLIFEVSGGNLGDLNRLLVECAKEAILQGDEEITYDIVHKFKWLKPTEGLRNIRNINLSLS
